Measured values published in patent publication US20130115166A1 (CEPHALON AUSTRALIA, published 2013).

T1: IL-23 (HEK293E-derived) (human, UniProt P29460 23-328; Q9NPF7 20-189)
T1 sequence 1: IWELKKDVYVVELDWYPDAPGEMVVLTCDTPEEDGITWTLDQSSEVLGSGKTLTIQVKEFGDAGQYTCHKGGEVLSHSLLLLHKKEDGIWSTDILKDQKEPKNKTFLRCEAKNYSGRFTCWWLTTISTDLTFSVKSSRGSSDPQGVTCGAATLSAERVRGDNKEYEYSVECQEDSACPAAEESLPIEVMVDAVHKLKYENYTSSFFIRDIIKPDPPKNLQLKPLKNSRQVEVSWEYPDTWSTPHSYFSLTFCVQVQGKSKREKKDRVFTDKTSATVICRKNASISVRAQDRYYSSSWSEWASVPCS
T1 sequence 2: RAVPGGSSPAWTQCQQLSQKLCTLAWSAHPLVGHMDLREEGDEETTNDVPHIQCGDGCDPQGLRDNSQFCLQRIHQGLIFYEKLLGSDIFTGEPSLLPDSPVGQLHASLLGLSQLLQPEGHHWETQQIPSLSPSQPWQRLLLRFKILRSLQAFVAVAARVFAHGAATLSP


Biological target: T1, IL-23 (HEK293E-derived)
Assay: SPR (Biacore), antibody supernatant captured on Protein A, IL-23 at 5 ug/ml as analyte
Description: As a result of the humanization processes 22 humanized antibodies were produced and tested for their ability to bind human IL-23 (Table 4). Briefly, 2 mL transfections of the 22 humanized antibodies were screened for antibody expression level and binding activity via SPR. Protein A was immobilized onto FC1 and FC2 (or alternatively FC3 and FC4) of a CM5 research grade sensor chip using amine coupling, giving approximately 3000 RU. FC1 was used as a blank throughout the experiments. The experiments were run in HBS-P buffer (SPR). Antibody-containing cell culture supernatants were diluted in 10× HBS-P buffer at a ratio of 9:1. The diluted antibody was injected over FC2 at a flow rate of 20 μl/min. IL-23 (HEK293E-derived) was passed over the surface of FC1 and FC2 at a concentrations of 5 μg/ml as a kinetic injection with 5 min dissociation time across both
FC. Regeneration of the surface was performed using 10 mM Glycine, pH 1.5. The sensorgram data from FC2 were subtracted from FC1 and a buffer only control. […] The Sequence IDs of the variable heavy and light chains for each antibody are given in the Table 4 along with kd (off-rates) of selected tested antibodies.

Binder | koff
11-23 (antibody, human IgG1, kappa, V domains shown, Humanized form of E11E7; also called humanized antibody 11-23) VH: QVQLQESGPGLVKPSETLSLTCTVSGGSISSYNVHWIRQPPGKGLEWIGVIWTGGSTDYNPSLKSRVTISRDTSKNQFSLKLSSVTAADTAVYYCARDKYGLFPGYFDYWGQGTLVTVSS VL: DIVMTQTPLSLPVTPGEPASISCKPSQSLLSSGNRKNYLAWYLQKPGQSPQLLIYYASTRQSGVPDRFSGSGSGTDFTLKISRVEAEDVGVYYCLQHFNYPWTFGQGTKLEIKR | 0.00462 s⁻¹
11-22 (antibody, human IgG1, kappa, V domains shown, Humanized form of E11E7; also called humanized antibody 11-22) VH: QVQLQESGPGLVKPSETLSLTCTVSGGSISSYNVHWIRQPPGKGLEWIGVIWTGGSTDYNPSLKSRVTISRDTSKNQFSLKLSSVTAADTAVYYCARDKYGLFPGYFDYWGQGTLVTVSS VL: DIVMTQSPDSLAVSLGERATINCKPSQSLLSSGNRKNYLAWYQQKPGQPPKLLIYYASTRQSGVPDRFSGSGSGTDFTLTISSLQAEDVAVYYCLQHFNYPWTFGQGTKLEIKR | 0.00121 s⁻¹
9-22 (antibody, human IgG1, kappa, V domains shown, Humanized form of E11E7; also called humanized antibody 9-22) VH: QVQLQESGPGLVKPSETLSLTCTVSGFSLISYNVHWIRQPPGKGLEWIGVIWTGGSTDYNPSLKSRVTISVDTSKNQFSLKLSSVTAADTAVYYCARDKYGLFPGYFDYWGQGTLVTVSS VL: DIVMTQSPDSLAVSLGERATINCKPSQSLLSSGNRKNYLAWYQQKPGQPPKLLIYYASTRQSGVPDRFSGSGSGTDFTLTISSLQAEDVAVYYCLQHFNYPWTFGQGTKLEIKR | 0.000198 s⁻¹
7-22 (antibody, human IgG1, kappa, V domains shown, Humanized form of E11E7; also called humanized antibody 7-22) VH: QVQLQESGPGLVKPSETLSLTCTVSGGSLSSYNVHWIRQPPGKGLEWIGVIWTGGSTDYNPSLKSRVTISRDTSKNQFSLKLSSVTAADTAVYYCARDKYGLFPGYFDYWGQGTLVTVSS VL: DIVMTQSPDSLAVSLGERATINCKPSQSLLSSGNRKNYLAWYQQKPGQPPKLLIYYASTRQSGVPDRFSGSGSGTDFTLTISSLQAEDVAVYYCLQHFNYPWTFGQGTKLEIKR | 0.00102 s⁻¹
5-23 (antibody, human IgG1, kappa, V domains shown, Humanized form of E11E7; also called humanized antibody 5-23) VH: QVQLQESGPGLVKPSETLSLTCTVSGGSIISYNVHWIRQPPGKGLEWIGVIWTGGSTDYNPSLKSRVTISRDTSKNQFSLKLSSVTAADTAVYYCARDKYGLFPGYFDYWGQGTLVTVSS VL: DIVMTQTPLSLPVTPGEPASISCKPSQSLLSSGNRKNYLAWYLQKPGQSPQLLIYYASTRQSGVPDRFSGSGSGTDFTLKISRVEAEDVGVYYCLQHFNYPWTFGQGTKLEIKR | 0.00639 s⁻¹
7-23 (antibody, human IgG1, kappa, V domains shown, Humanized form of E11E7; also called humanized antibody 7-23) VH: QVQLQESGPGLVKPSETLSLTCTVSGGSLSSYNVHWIRQPPGKGLEWIGVIWTGGSTDYNPSLKSRVTISRDTSKNQFSLKLSSVTAADTAVYYCARDKYGLFPGYFDYWGQGTLVTVSS VL: DIVMTQTPLSLPVTPGEPASISCKPSQSLLSSGNRKNYLAWYLQKPGQSPQLLIYYASTRQSGVPDRFSGSGSGTDFTLKISRVEAEDVGVYYCLQHFNYPWTFGQGTKLEIKR | 0.00391 s⁻¹
5-22 (antibody, human IgG1, kappa, V domains shown, Humanized form of E11E7; also called humanized antibody 5-22) VH: QVQLQESGPGLVKPSETLSLTCTVSGGSIISYNVHWIRQPPGKGLEWIGVIWTGGSTDYNPSLKSRVTISRDTSKNQFSLKLSSVTAADTAVYYCARDKYGLFPGYFDYWGQGTLVTVSS VL: DIVMTQSPDSLAVSLGERATINCKPSQSLLSSGNRKNYLAWYQQKPGQPPKLLIYYASTRQSGVPDRFSGSGSGTDFTLTISSLQAEDVAVYYCLQHFNYPWTFGQGTKLEIKR | 0.00198 s⁻¹
6-23 (antibody, human IgG1, kappa, V domains shown, Humanized form of E11E7; also called humanized antibody 6-23) VH: QVQLQESGPGLVKPSETLSLTCTVSGFSISSYNVHWIRQPPGKGLEWIGVIWTGGSTDYNPSLKSRVTISRDTSKNQFSLKLSSVTAADTAVYYCARDKYGLFPGYFDYWGQGTLVTVSS VL: DIVMTQTPLSLPVTPGEPASISCKPSQSLLSSGNRKNYLAWYLQKPGQSPQLLIYYASTRQSGVPDRFSGSGSGTDFTLKISRVEAEDVGVYYCLQHFNYPWTFGQGTKLEIKR | 0.000566 s⁻¹
8-23 (antibody, human IgG1, kappa, V domains shown, Humanized form of E11E7; also called humanized antibody 8-23) VH: QVQLQESGPGLVKPSETLSLTCTVSGFSLISYNVHWIRQPPGKGLEWIGVIWTGGSTDYNPSLKSRVTISRDTSKNQFSLKLSSVTAADTAVYYCARDKYGLFPGYFDYWGQGTLVTVSS VL: DIVMTQTPLSLPVTPGEPASISCKPSQSLLSSGNRKNYLAWYLQKPGQSPQLLIYYASTRQSGVPDRFSGSGSGTDFTLKISRVEAEDVGVYYCLQHFNYPWTFGQGTKLEIKR | 0.000285 s⁻¹
16-12 (antibody, human IgG1, kappa, V domains shown, Humanized form of E11E7; also called humanized antibody 16-12) VH: QVQLQESGPGLVKPSQTLSLTCTVSGFSLISYNVHWIRQPPGKGLEWIGVIWTGGSTDYNSVLKSRVTMSRDTSKNQFSLKVNSVTAADTAVYYCARDKYGLFPGYFDYWGQGTLVTVSS VL: EIVMTQSPATLSLSPGERATLSCKPSQSLLSSGNRKNYLAWYQQKPGQAPRLLIYYASTRQSGIPARFSGSGSGTDFTLTISSLEPEDFAVYYCLQHFNYPWTFGGGTKAEIKR | 0.000224 s⁻¹

Other lines, results leading:

koff | Binder
0.00313 s⁻¹ | 10-22 (antibody, human IgG1, kappa, V domains shown, Humanized form of E11E7; also called humanized antibody 10-22) VH: QVQLQESGPGLVKPSETLSLTCTVSGGSISSYNVHWIRQPPGKGLEWIGVIWTGGSTDYNPSLKSRVTISVDTSKNQFSLKLSSVTAADTAVYYCARDKYGLFPGYFDYWGQGTLVTVSS VL: DIVMTQSPDSLAVSLGERATINCKPSQSLLSSGNRKNYLAWYQQKPGQPPKLLIYYASTRQSGVPDRFSGSGSGTDFTLTISSLQAEDVAVYYCLQHFNYPWTFGQGTKLEIKR
0.013 s⁻¹ | 10-23 (antibody, human IgG1, kappa, V domains shown, Humanized form of E11E7; also called humanized antibody 10-23) VH: QVQLQESGPGLVKPSETLSLTCTVSGGSISSYNVHWIRQPPGKGLEWIGVIWTGGSTDYNPSLKSRVTISVDTSKNQFSLKLSSVTAADTAVYYCARDKYGLFPGYFDYWGQGTLVTVSS VL: DIVMTQTPLSLPVTPGEPASISCKPSQSLLSSGNRKNYLAWYLQKPGQSPQLLIYYASTRQSGVPDRFSGSGSGTDFTLKISRVEAEDVGVYYCLQHFNYPWTFGQGTKLEIKR
0.00056 s⁻¹ | 9-23 (antibody, human IgG1, kappa, V domains shown, Humanized form of E11E7; also called humanized antibody 9-23) VH: QVQLQESGPGLVKPSETLSLTCTVSGFSLISYNVHWIRQPPGKGLEWIGVIWTGGSTDYNPSLKSRVTISVDTSKNQFSLKLSSVTAADTAVYYCARDKYGLFPGYFDYWGQGTLVTVSS VL: DIVMTQTPLSLPVTPGEPASISCKPSQSLLSSGNRKNYLAWYLQKPGQSPQLLIYYASTRQSGVPDRFSGSGSGTDFTLKISRVEAEDVGVYYCLQHFNYPWTFGQGTKLEIKR
0.00133 s⁻¹ | 18-4 (antibody, human IgG1, kappa, V domains shown, Humanized form of E11E7; also called humanized antibody 18-4) VH: EVQLQQWGAGLLKPSETLSLTCAVYGGSFSSYNVHWIRQPPGKGLEWIGVIWTGGSTDYNSVLKSRVTISVDTSKNQFSLKLSSVTAADTAVYYCARDKYGLFPGYFDYWGQGTLVTVSS VL: EIVLTQSPATLSLSPGERATLSCKPSQSLLSSGNRKNYLAWYQQKPGQAPRLLIYYASTRQSGIPDRFSGSGSGTDFTLTISRLEPEDFAVYYCLQHFNYPWTFGGGTKVEIKR
0.006 s⁻¹ | 15-12 (antibody, human IgG1, kappa, V domains shown, Humanized form of E11E7; also called humanized antibody 15-12) VH: QVQLQESGPGLVKPSQTLSLTCTVSGGSISSYNVHWIRQPPGKGLEWIGVIWTGGSTDYNSVLKSRVTMSVDTSKNQFSLKVNSVTAADTAVYYCARDKYGLFPGYFDYWGQGTLVTVSS VL: EIVMTQSPATLSLSPGERATLSCKPSQSLLSSGNRKNYLAWYQQKPGQAPRLLIYYASTRQSGIPARFSGSGSGTDFTLTISSLEPEDFAVYYCLQHFNYPWTFGGGTKAEIKR
0.000855 s⁻¹ | 13-12 (antibody, human IgG1, kappa, V domains shown, Humanized form of E11E7; also called humanized antibody 13-12) VH: QVQLQESGPGLVKPSQTLSLTCTVSGFSLISYNVHWIRQPPGKGLEWIGVIWTGGSTDYNSVLKSRVTMSVDTSKNQFSLKVNSVTAADTAVYYCARDKYGLFPGYFDYWGQGTLVTVSS VL: EIVMTQSPATLSLSPGERATLSCKPSQSLLSSGNRKNYLAWYQQKPGQAPRLLIYYASTRQSGIPARFSGSGSGTDFTLTISSLEPEDFAVYYCLQHFNYPWTFGGGTKAEIKR
0.00349 s⁻¹ | 14-12 (antibody, human IgG1, kappa, V domains shown, Humanized form of E11E7; also called humanized antibody 14-12) VH: QVQLQESGPGLVKPSQTLSLTCTVSGGSISSYNVHWIRQPPGKGLEWIGVIWTGGSTDYNSVLKSRVTMSRDTSKNQFSLKVNSVTAADTAVYYCARDKYGLFPGYFDYWGQGTLVTVSS VL: EIVMTQSPATLSLSPGERATLSCKPSQSLLSSGNRKNYLAWYQQKPGQAPRLLIYYASTRQSGIPARFSGSGSGTDFTLTISSLEPEDFAVYYCLQHFNYPWTFGGGTKAEIKR
